Measured values from patent publication US20060281899A1, “Mutants of biotin binding protein” (priority 2002, published 2006).
Read-outs that look alike come from different tables or passages of the source.

Experiments:
[1] = IAsys optical biosensor, affinity of avidin and avidin mutants towards 2-iminobiotin; assay type: binding
Description: (§1) Reversibility of biotin binding was measured for avidin and the mutants with an IAsys optical biosensor (Laitinen, O. H. et al., FEBS Lett 461 (1999), 52-8). Protein samples were allowed to bind to a biotin-aminosilane cuvette in PBS containing 1 M NaCl. After the equilibrium was reached, biotin-containing buffer was added and the dissociation of the proteins was monitored. The affinities of the proteins towards 2-iminobiotin were determined with an IAsys optical biosensor (Marttila, A. T. et al. FEBS Lett 441 (1998), 313-7). Biotin-binding activity of the mutants Avd-ci and Avd-ccci after heat treatment was studied with a microtiter plate assay. Protein samples, 5 μg/ml concentration in PBS, were heated for various time periods at 99.9° C. and then chilled on ice. The samples were transferred to a Nunc Maxisorp-plate and incubated at 37° C. for 2 h. The wells were washed three times with PBS-Tween (0.05% v/v). After that the wells were blocked with PBS containing 1% BSA at 37° C. for 30 minutes and washed again with PBS-Tween. Next, biotinylated alkaline phosphatase (Sigma) in PBS, 1% BSA was added and incubated at 37° C. for one hour. Once again, the wells were washed with PBS-Tween and the PNPP substrate in DEA buffer (1 mg/ml) was applied to the wells. The absorbances at 405 nm were measured after incubation for 45 minutes.

[2] = system: biotinylated alkaline phosphatase; assay: Microtiter plate assay, biotin-binding activity after heat treatment at 99.9° C.; assay type: physicochemical; conditions: 99.9° C. for various time periods
Description: as §1, with “After that the wells were blocked with PBS containing 1% BSA at 37° C. for 30 minutes and washed again with PBS-Tween. Next, biotinylated alkaline phosphatase (Sigma) in PBS, 1% BSA was added and incubated at 37° C. for one hour. Once again, the wells were washed with PBS-Tween and the PNPP substrate in DEA buffer (1 mg/ml) was applied to the wells.” left out
Biotin-binding activity of the proteins after heat treatment was studied with a microtiter plate assay (Nordlund, H. R., Laitinen, O. H., Uotila, S. T., Nyholm, T., Hytönen, V. P., Slotte, J. P. & Kulomaa, M. S. (2003) J. Biol. Chem. 278, 2479-2483). […] The absorbencies at 405 nm were measured after incubation for 45 minutes.

[3] = Differential scanning calorimetry of the avidin mutants; assay type: physicochemical; conditions: for Tm: DSC, 100 mM Na-phosphate buffer pH 7.4
Description: In order to study the thermal stability of the purified avidin mutants, they were subjected to analysis by differential scanning calorimetry. A Nano II differential scanning calorimeter (Calorimetric Science Corporation, Provo, Utah) was used. […] The reference cell was filled with the same buffer that the sample proteins were dissolved in (100 mM Na-phosphate buffer pH 7.4). The thermograms were recorded as a function of temperature, between 25 and 130° C. at a temperature scan rate of 55.6° C./h. The baselines were subtracted and the transition midpoints (Tm) of the samples were calculated using proprietary software provided by the instrument manufacturer.

[4] = 2-iminobiotin surface; from Nordlund 2003; read-out: Kd detected from the equilibrium response data; cited from earlier work
[5] = cited from earlier work
[6] = previously published (Nordlund 2003; Gonzalez 1999)

B1: Avd-ccci: Avidin mutant D86C, I106C, I117C with six intermonomeric disulphide bridges (protein, UniProt P02701 25-152, looked up, variant D86C I106C I117C)
Avidin: ARKCSLTGKWTNDLGSNMTIGAVNSRGEFTGTYITAVTATSNEIKESPLHGTQNTINKRTQPTFGFTVNWKFSESTTVFTGQCFICRNGKEVLKTMWLLRSSVNDCGDDWKATRVGCNIFTRLRTQKE
For B1, the Kd [1] was 290 nM, the “biotin-binding activity after heat treatment” value [2] was “remained active, in the sense of binding biotin, longer than the wild-type avidin” and the ΔTm ([3]; + biotin, difference in Tm compared to wt avidin + biotin) was 3.8 °C. For the same molecule, the Tm ([3]; + biotin (biotin:avidin molar ratio 3:1)) was 122.0 ± 0.1 °C, the Tm ([3]; without biotin) was 94.7 ± 0.5 °C and the ΔTm ([3]; without biotin, difference in Tm compared to wt avidin) was 9.2 °C. The Kd [4] was 290 nM, the ΔTm ([5]; change in Tm upon biotin addition, previously published values) was 27.3 °C and the “DSC Tm (+biotin)” value [5, 6] was 122.0 ± 0.1 °C. For the same molecule, the “DSC Tm(−biotin)” value [5, 6] was 94.7 ± 0.5 °C.
